Experimental data as given in patent US20260015405A1 (TRANSGENE, published 2026).

B1: construct encoded by pTG19966: [N-terminus]-[coiled-coil neck domain]-[CD40L] (ligand)
chain: AEMKTYSHRTMPSACTLVMCSSVESDVASLRQQVEALQGQVQHLQAAFSQYKKVENPQIAAHVISEASSKTTSVLQWAEKGYYTMSNNLVTLENGKQLTVKRQGLYYIYAQVTFCSNREASSQAPFIASLCLKSPGRFERILLRAANTHSSAKPCGQQSIHLGGVFELQPGASVFVNVTDPSQVSHGTGFTSFGLLKL
notes: Tested as clarified HeLa supernatant, oligomeric state mixed; It was detected by anti-FLAG immunoblot
B2: construct encoded by pTG19967: [N-terminus]-[coiled-coil neck domain]-[linker]-[CD40L] (ligand)
chain: AEMKTYSHRTMPSACTLVMCSSVESDVASLRQQVEALQGQVQHLQAAFSQYKKVEGGGSGGGSGGGSNPQIAAHVISEASSKTTSVLQWAEKGYYTMSNNLVTLENGKQLTVKRQGLYYIYAQVTFCSNREASSQAPFIASLCLKSPGRFERILLRAANTHSSAKPCGQQSIHLGGVFELQPGASVFVNVTDPSQVSHGTGFTSFGLLKL
B3: construct encoded by pTG20042: [N-terminus]-[collagen domain(30)]-[coiled-coil neck domain]-[CD40L] (ligand)
chain: AEMKTYSHRTMPSACTLVMCSSVESGLPGRDGRDGREGPRGEKGDPGLPGAAGQAGMPGQAGPVGPKGDNGSVGEPGPKGDTGPSGPPGPPGVPGPAGREGPLGKQGNIGPQGKPDVASLRQQVEALQGQVQHLQAAFSQYKKVENPQIAAHVISEASSKTTSVLQWAEKGYYTMSNNLVTLENGKQLTVKRQGLYYIYAQVTFCSNREASSQAPFIASLCLKSPGRFERILLRAANTHSSAKPCGQQSIHLGGVFELQPGASVFVNVTDPSQVSHGTGFTSFGLLKL
notes: Tested as clarified HeLa supernatant
B4: construct encoded by pTG19325: fusion protein SPD (M1-G257, P35247 numbering)-CD40L (H47 to L261 from P29965 numbering) (ligand)
chain: AEMKTYSHRTMPSACTLVMCSSVESGLPGRDGRDGREGPRGEKGDPGLPGAAGQAGMPGQAGPVGPKGDNGSVGEPGPKGDTGPSGPPGPPGVPGPAGREGPLGKQGNIGPQGKPGPKGEAGPKGEVGAPGMQGSAGARGLAGPKGERGVPGERGVPGNTGAAGSAGAMGPQGSPGARGPPGLKGDKGIPGDKGAKGESGLPDVASLRQQVEALQGQVQHLQAAFSQYKKVELFPNGHRRLDKIEDERNLHEDFVFMKTIQRCNTGERSLSLLNCEEIKSQFEGFVKDIMLNKEETKKENSFEMQKGDQNPQIAAHVISEASSKTTSVLQWAEKGYYTMSNNLVTLENGKQLTVKRQGLYYIYAQVTFCSNREASSQAPFIASLCLKSPGRFERILLRAANTHSSAKPCGQQSIHLGGVFELQPGASVFVNVTDPSQVSHGTGFTSFGLLKL
notes: Tested as clarified, unpurified supernatant of infected/transfected HeLa cells; concentration unknown; The construct begins at M1 of SPD, so the entry may include the native signal peptide; The form range is that of the CD40L part
B5: construct encoded by pTG20038: [N-terminus]-[collagen domain(6 + N-Gly)]-[coiled-coil neck domain]-[CD40L] (ligand)
chain: AEMKTYSHRTMPSACTLVMCSSVESGQAGPVGPKGDNGSVGEPDVASLRQQVEALQGQVQHLQAAFSQYKKVENPQIAAHVISEASSKTTSVLQWAEKGYYTMSNNLVTLENGKQLTVKRQGLYYIYAQVTFCSNREASSQAPFIASLCLKSPGRFERILLRAANTHSSAKPCGQQSIHLGGVFELQPGASVFVNVTDPSQVSHGTGFTSFGLLKL
notes: as for B3
B6: construct encoded by pTG20039: [N-terminus]-[collagen domain(6 - N-Gly)]-[coiled-coil neck domain]-[CD40L] (ligand)
chain: AEMKTYSHRTMPSACTLVMCSSVESGPKGDTGPSGPPGPPGVPDVASLRQQVEALQGQVQHLQAAFSQYKKVENPQIAAHVISEASSKTTSVLQWAEKGYYTMSNNLVTLENGKQLTVKRQGLYYIYAQVTFCSNREASSQAPFIASLCLKSPGRFERILLRAANTHSSAKPCGQQSIHLGGVFELQPGASVFVNVTDPSQVSHGTGFTSFGLLKL
notes: as for B3
B7: construct encoded by pTG20041: [N-terminus]-[collagen domain(12bis)]-[coiled-coil neck domain]-[CD40L] (ligand)
chain: AEMKTYSHRTMPSACTLVMCSSVESGPLGKQGNIGPQGKPGPKGEAGPKGEVGAPGMQGSADVASLRQQVEALQGQVQHLQAAFSQYKKVENPQIAAHVISEASSKTTSVLQWAEKGYYTMSNNLVTLENGKQLTVKRQGLYYIYAQVTFCSNREASSQAPFIASLCLKSPGRFERILLRAANTHSSAKPCGQQSIHLGGVFELQPGASVFVNVTDPSQVSHGTGFTSFGLLKL
notes: as for B3
B8: construct encoded by pTG19969: [N-terminus]-[collagen domain(12)]-[coiled-coil neck domain]-[linker]-[CD40L] (ligand)
chain: AEMKTYSHRTMPSACTLVMCSSVESGQAGPVGPKGDNGSVGEPGPKGDTGPSGPPGPPGVPDVASLRQQVEALQGQVQHLQAAFSQYKKVEGGGSGGGSGGGSNPQIAAHVISEASSKTTSVLQWAEKGYYTMSNNLVTLENGKQLTVKRQGLYYIYAQVTFCSNREASSQAPFIASLCLKSPGRFERILLRAANTHSSAKPCGQQSIHLGGVFELQPGASVFVNVTDPSQVSHGTGFTSFGLLKL
B9: construct encoded by pTG19968: [N-terminus]-[collagen domain(12)]-[coiled-coil neck domain]-[CD40L] (ligand)
chain: AEMKTYSHRTMPSACTLVMCSSVESGQAGPVGPKGDNGSVGEPGPKGDTGPSGPPGPPGVPDVASLRQQVEALQGQVQHLQAAFSQYKKVENPQIAAHVISEASSKTTSVLQWAEKGYYTMSNNLVTLENGKQLTVKRQGLYYIYAQVTFCSNREASSQAPFIASLCLKSPGRFERILLRAANTHSSAKPCGQQSIHLGGVFELQPGASVFVNVTDPSQVSHGTGFTSFGLLKL

Each binder was assayed against T1, CD40-Fc (immobilized recombinant human CD40) (human, UniProt P25942 21-193, limits assumed) (assay: ELISA, CD40-Fc coated, HeLa supernatant, detection with non-competitive anti-CD40L).
T1 construct: Coated on the ELISA plate
T1 sequence (P25942 21-193 limits assumed): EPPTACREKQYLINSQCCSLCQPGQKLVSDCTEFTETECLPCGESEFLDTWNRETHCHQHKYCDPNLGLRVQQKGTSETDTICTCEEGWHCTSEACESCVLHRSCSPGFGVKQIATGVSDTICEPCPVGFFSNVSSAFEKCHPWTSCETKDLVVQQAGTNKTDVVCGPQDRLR
B1: binds.
B2: binds.
B3: binds.
B4: binds.
B5: binds.
B6: binds.
B7: binds.
B8: binds.
B9: binds.
